Experimental findings from patent US20090263375A1 (WISCONSIN ALUMNI RESEARCH FOUNDATION, published 2009) are described below.

First the molecules themselves.
T1: Symplekin (human, UniProt Q92797 1-1274)
T1 sequence (looked up): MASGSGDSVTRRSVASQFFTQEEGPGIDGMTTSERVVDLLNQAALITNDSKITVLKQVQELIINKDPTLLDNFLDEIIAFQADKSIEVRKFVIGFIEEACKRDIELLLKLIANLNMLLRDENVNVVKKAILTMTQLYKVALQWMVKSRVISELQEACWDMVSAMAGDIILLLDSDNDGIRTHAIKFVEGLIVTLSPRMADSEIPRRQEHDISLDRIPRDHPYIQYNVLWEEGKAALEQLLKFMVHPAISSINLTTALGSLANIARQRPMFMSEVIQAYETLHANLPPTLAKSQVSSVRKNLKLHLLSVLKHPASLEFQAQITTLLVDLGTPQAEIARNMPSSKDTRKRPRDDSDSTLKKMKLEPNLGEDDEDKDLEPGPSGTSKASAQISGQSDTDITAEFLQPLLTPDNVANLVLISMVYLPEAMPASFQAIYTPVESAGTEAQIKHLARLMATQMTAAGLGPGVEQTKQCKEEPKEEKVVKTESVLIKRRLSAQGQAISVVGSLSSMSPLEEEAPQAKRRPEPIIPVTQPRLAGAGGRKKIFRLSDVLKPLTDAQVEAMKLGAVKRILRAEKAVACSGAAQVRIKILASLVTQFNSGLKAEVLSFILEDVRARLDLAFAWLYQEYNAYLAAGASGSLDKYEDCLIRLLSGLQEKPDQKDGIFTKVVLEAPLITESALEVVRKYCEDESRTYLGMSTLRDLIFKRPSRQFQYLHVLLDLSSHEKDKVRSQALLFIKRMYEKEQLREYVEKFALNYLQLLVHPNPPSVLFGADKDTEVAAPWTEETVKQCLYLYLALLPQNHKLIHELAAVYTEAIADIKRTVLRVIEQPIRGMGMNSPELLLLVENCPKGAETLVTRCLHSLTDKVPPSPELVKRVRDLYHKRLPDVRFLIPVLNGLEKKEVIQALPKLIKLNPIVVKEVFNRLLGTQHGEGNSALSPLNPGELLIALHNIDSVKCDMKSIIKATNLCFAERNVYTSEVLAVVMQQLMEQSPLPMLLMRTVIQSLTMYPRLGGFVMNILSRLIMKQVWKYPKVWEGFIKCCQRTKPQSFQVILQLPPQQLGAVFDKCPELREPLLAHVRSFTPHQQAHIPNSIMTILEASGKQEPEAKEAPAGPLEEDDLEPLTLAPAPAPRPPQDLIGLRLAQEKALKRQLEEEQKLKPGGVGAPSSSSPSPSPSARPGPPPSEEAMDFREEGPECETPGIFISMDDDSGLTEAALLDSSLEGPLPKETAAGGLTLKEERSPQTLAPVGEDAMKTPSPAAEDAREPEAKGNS

B1: CPSF-73 (Cleavage and Polyadenylation Specificity Factor subunit 73) (enzyme, human, UniProt Q9UKF6 2-684, looked up)
chain: SAIPAEESDQLLIRPLGAGQEVGRSCIILEFKGRKIMLDCGIHPGLEGMDALPYIDLIDPAEIDLLLISHFHLDHCGALPWFLQKTSFKGRTFMTHATKAIYRWLLSDYVKVSNISADDMLYTETDLEESMDKIETINFHEVKEVAGIKFWCYHAGHVLGAAMFMIEIAGVKLLYTGDFSRQEDRHLMAAEIPNIKPDILIIESTYGTHIHEKREEREARFCNTVHDIVNRGGRGLIPVFALGRAQELLLILDEYWQNHPELHDIPIYYASSLAKKCMAVYQTYVNAMNDKIRKQININNPFVFKHISNLKSMDHFDDIGPSVVMASPGMMQSGLSRELFESWCTDKRNGVIIAGYCVEGTLAKHIMSEPEEITTMSGQKLPLKMSVDYISFSAHTDYQQTSEFIRALKPPHVILVHGEQNEMARLKAALIREYEDNDEVHIEVHNPRNTEAVTLNFRGEKLAKVMGFLADKKPEQGQRVSGILVKRNFNYHILSPCDLSNYTDLAMSTVKQTQAIPYTGPFNLLCYQLQKLTGDVEELEIQEKPALKVFKNITVIQEPGMVVLEWLANPSNDMYADTVTTVILEVQSNPKIRKGAVQKVSKKLEMHVYSKRLEIMLQDIFGEDCVSVKDDSILSVTVDGKTANLNLETRTVECEEGSEDDESLREMVELAAQRLYEALTPVH
notes: also called CSPF-73
B2: Flag-Star-PAP (full length) (enzyme)
chain: MAAVDSDVESLPRGGFRCCLCHVTTANRPSLDAHLGGRKHRHLVELRAARKAQGLRSVFVSGFPRGVDSAQLSEYFLAFGPVASVVMDKDKGVFAIVEMGDVGAREAVLSQSQHSLGGHRLRVRPREQKEFQSPASKSPKGAAPDSHQLAKALAEAADVGAQMIKLVGLRELSEAERQLRSLVVALMQEVFTEFFPGCVVHPFGSSINSFDVHGCDLDLFLDLGDLEEPQPVPKAPESPSLDSALASPLDPQALACTPASPPDSQPPASPQDSEALDFETPSSSLAPQTPDSALASETLASPQSLPPASPLLEDREEGDLGKASELAETPKEEKAEGAAMLELVGSILRGCVPGVYRVQTVPSARRPVVKFCHRPSGLHGDVSLSNRLALHNSRFLSLCSELDGRVRPLVYTLRCWAQGRGLSGSGPLLSNYALTLLVIYFLQTRDPPVLPTVSQLTQKAGEGEQVEVDGWDCSFPRDASRLEPSINVEPLSSLLAQFFSCVSCWDLRGSLLSLREGQALPVAGGLPSNLWEGLRLGPLNLQDPFDLSHNVAANVTSRVAGRLQNCCRAAANYCRSLQYQRRSSRGRDWGLLPLLQPSSPSSLLSATPIPLPLAPFTQLTAALVQVFREALGCHIEQATKRTRSEGGGTGESSQGGTSKRLKVDGQKNCCEEGKEEQQGCAGDGGEDRVEEMVIEVGEMVQDWAMQSPGQPGDLPLTTGKHGAPGEEGQPSHAALAERGPKGHEAAQEWSQGEAGKGASLPSSASWRCALWHRVWQGRRRARRRLQQQTKEGAGGGAGTRAGWLATEAQVTQELKGLSGGEERPETEPLLSFVASVSPADRMLTVTPLQDPQGLFPDLHHFLQVFLPQAIRHLK
notes: Expressed in HEK 293 cells and purified on anti-FLAG M2 resin together with its associated complex; also called Flag tagged Star-PAP; full-length Star-PAP; not shown: FLAG tag
B3: CPSF-100 (Cleavage and Polyadenylation Specificity Factor subunit 100) (other, human, UniProt Q9P2I0 1-782, looked up)
chain: MTSIIKLTTLSGVQEESALCYLLQVDEFRFLLDCGWDEHFSMDIIDSLRKHVHQIDAVLLSHPDPLHLGALPYAVGKLGLNCAIYATIPVYKMGQMFMYDLYQSRHNTEDFTLFTLDDVDAAFDKIQQLKFSQIVNLKGKGHGLSITPLPAGHMIGGTIWKIVKDGEEEIVYAVDFNHKREIHLNGCSLEMLSRPSLLITDSFNATYVQPRRKQRDEQLLTNVLETLRGDGNVLIAVDTAGRVLELAQLLDQIWRTKDAGLGVYSLALLNNVSYNVVEFSKSQVEWMSDKLMRCFEDKRNNPFQFRHLSLCHGLSDLARVPSPKVVLASQPDLECGFSRDLFIQWCQDPKNSIILTYRTTPGTLARFLIDNPSEKITEIELRKRVKLEGKELEEYLEKEKLKKEAAKKLEQSKEADIDSSDESDIEEDIDQPSAHKTKHDLMMKGEGSRKGSFFKQAKKSYPMFPAPEERIKWDEYGEIIKPEDFLVPELQATEEEKSKLESGLTNGDEPMDQDLSDVPTKCISTTESIEIKARVTYIDYEGRSDGDSIKKIINQMKPRQLIIVHGPPEASQDLAECCRAFGGKDIKVYMPKLHETVDATSETHIYQVRLKDSLVSSLQFCKAKDAELAWIDGVLDMRVSKVDTGVILEEGELKDDGEDSEMQVEAPSDSSVIAQQKAMKSLFGDDEKETGEESEIIPTLEPLPPHEVPGHQSVFMNEPRLSDFKQVLLREGIQAEFVGGVLVCNNQVAVRRTETGRIGLEGCLCQDFYRIRDLLYEQYAIV
notes: also called SPSF-100
B4: CstF-64 (Cleavage-Stimulatory Factor subunit 64) (other, human, UniProt P33240 1-577, looked up)
chain: MAGLTVRDPAVDRSLRSVFVGNIPYEATEEQLKDIFSEVGPVVSFRLVYDRETGKPKGYGFCEYQDQETALSAMRNLNGREFSGRALRVDNAASEKNKEELKSLGTGAPVIESPYGETISPEDAPESISKAVASLPPEQMFELMKQMKLCVQNSPQEARNMLLQNPQLAYALLQAQVVMRIVDPEIALKILHRQTNIPTLIAGNPQPVHGAGPGSGSNVSMNQQNPQAPQAQSLGGMHVNGAPPLMQASMQGGVPAPGQMPAAVTGPGPGSLAPGGGMQAQVGMPGSGPVSMERGQVPMQDPRAAMQRGSLPANVPTPRGLLGDAPNDPRGGTLLSVTGEVEPRGYLGPPHQGPPMHHVPGHESRGPPPHELRGGPLPEPRPLMAEPRGPMLDQRGPPLDGRGGRDPRGIDARGMEARAMEARGLDARGLEARAMEARAMEARAMEARAMEARAMEVRGMEARGMDTRGPVPGPRGPIPSGMQGPSPINMGAVVPQGSRQVPVMQGTGMQGASIQGGSQPGGFSPGQNQVTPQDHEKAALIMQVLQLTADQIAMLPPEQRQSILILKEQIQKSTGAP

Experiment in all cases: FLAG affinity purification from HEK 293 cells, western blot
On the technique in general: In western blotting, separated proteins are transferred to a membrane and probed.

Assay [1] has as its target B2. Here is the method: (§1) Affinity purification of Flag-Star-PAP and Flag-PAPα and their associated complex of proteins in parallel allowed a comparison of the complexes formed by Star-PAP and PAPα in more detail. Flag tagged Star-PAP and PAPα were purified from HEK 293 cells stably expressing Flag-Star-PAP or Flag-PAPα (following manufacturer's instructions; Sigma-Aldrich) and the presence of endogenous symplekin, CPSF¹⁰⁰, CPSF⁷³, CstF⁶⁴, RNA Pol II, Sm protein (Y12) and PIPKIα was assessed by western blotting. Like Flag-PAPα, Flag-Star-PAP associates with symplekin, CPSF¹⁰⁰ and CPSF⁷³, further confirmation that Star-PAP may function in an mRNA polyadenylation complex (FIG. 7). Also detected with both PAPs was a faster migrating form of RNA Pol II and Sm protein (Y-12), a component of the spliceosome, which is consistent with reports that the machinery for splicing and polyadenylation are coupled.

The target in assay [2] is T2, Flag-PAPα (canonical poly(A) polymerase) (Homo sapiens (Human), UniProt P51003 1-745, limits assumed).
T2 construct: not shown: FLAG tag
T2 sequence (P51003 whole entry): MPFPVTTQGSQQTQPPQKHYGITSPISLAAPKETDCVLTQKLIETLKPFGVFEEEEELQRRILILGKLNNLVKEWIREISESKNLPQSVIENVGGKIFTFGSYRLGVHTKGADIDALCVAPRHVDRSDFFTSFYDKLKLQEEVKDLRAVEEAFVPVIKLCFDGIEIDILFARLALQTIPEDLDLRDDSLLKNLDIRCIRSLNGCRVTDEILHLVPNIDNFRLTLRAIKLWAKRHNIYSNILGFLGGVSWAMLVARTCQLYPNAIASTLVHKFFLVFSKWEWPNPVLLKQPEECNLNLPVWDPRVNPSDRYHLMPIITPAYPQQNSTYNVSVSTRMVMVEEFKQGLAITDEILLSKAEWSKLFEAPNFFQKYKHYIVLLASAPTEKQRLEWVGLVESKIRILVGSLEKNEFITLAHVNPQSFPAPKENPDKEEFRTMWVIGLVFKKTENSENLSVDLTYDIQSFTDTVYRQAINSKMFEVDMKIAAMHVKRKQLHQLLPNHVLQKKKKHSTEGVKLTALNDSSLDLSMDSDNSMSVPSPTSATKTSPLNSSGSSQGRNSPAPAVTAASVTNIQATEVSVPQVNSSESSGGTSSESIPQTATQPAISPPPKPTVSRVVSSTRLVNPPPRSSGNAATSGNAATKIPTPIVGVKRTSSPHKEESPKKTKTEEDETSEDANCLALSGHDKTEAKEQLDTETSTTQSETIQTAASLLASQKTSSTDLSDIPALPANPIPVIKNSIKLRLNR
Here is the method: as §1

The target in assay [3] is T1, Symplekin. The protocol:
as §1

As for B1, the binding result in assay [1] and in assay [2] was “binds” each time. Turning to B2, the binding result in assay [3] was “binds”. On to B3, for which, in assay [1], the binding result was “binds”. As for B4, the binding result in assay [1] is listed as “binds”; in assay [2] it was “no binding”.
